Assay in all cases: cell-based or functional assay
Assay [1] has as its target Bovine pancreatic α-chymotrypsin (bovine).
The target in assay [2] is T1, Human neutrophil elastase (HNE) (human, UniProt P08246 30-267).
T1 sequence (looked up): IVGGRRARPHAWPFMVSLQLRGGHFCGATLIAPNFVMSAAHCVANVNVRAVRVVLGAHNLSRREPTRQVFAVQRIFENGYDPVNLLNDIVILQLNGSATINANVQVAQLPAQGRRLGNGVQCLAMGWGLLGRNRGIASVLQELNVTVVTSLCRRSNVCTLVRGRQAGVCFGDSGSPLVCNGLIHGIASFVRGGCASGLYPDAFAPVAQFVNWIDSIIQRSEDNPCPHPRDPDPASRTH

The target of assay [3] is T2, Thermolysin from Geobacillus stearothermophilus (Geobacillus stearothermophilus, UniProt P00800 233-548).
T2 sequence (looked up): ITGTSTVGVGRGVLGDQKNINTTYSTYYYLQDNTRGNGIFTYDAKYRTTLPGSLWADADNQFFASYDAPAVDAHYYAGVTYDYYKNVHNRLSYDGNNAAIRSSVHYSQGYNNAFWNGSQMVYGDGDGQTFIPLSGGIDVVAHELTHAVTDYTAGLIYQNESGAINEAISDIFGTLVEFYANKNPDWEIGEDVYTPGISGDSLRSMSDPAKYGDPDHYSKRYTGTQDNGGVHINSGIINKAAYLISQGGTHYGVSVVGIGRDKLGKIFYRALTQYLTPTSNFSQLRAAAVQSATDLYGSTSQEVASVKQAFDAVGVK

B1: Human alpha-2 macroglobulin-like 1 (A2ML1), recombinant wild type, native (natural protein, UniProt A8K2U0 18-1454, looked up)
chain: EELPNYLVTLPARLNFPSVQKVCLDLSPGYSDVKFTVTLETKDKTQKLLEYSGLKKRHLHCISFLVPPPAGGTEEVATIRVSGVGNNISFEEKKKVLIQRQGNGTFVQTDKPLYTPGQQVYFRIVTMDSNFVPVNDKYSMVELQDPNSNRIAQWLEVVPEQGIVDLSFQLAPEAMLGTYTVAVAEGKTFGTFSVEEYVLPKFKVEVVEPKELSTVQESFLVKICCRYTYGKPMLGAVQVSVCQKANTYWYREVEREQLPDKCRNLSGQTDKTGCFSAPVDMATFDLIGYAYSHQINIVATVVEEGTGVEANATQNIYISPQMGSMTFEDTSNFYHPNFPFSGKIRVRGHDDSFLKNHLVFLVIYGTNGTFNQTLVTDNNGLAPFTLETSGWNGTDVSLEGKFQMEDLVYNPEQVPRYYQNAYLHLRPFYSTTRSFLGIHRLNGPLKCGQPQEVLVDYYIDPADASPDQEISFSYYLIGKGSLVMEGQKHLNSKKKGLKASFSLSLTFTSRLAPDPSLVIYAIFPSGGVVADKIQFSVEMCFDNQVSLGFSPSQQLPGAEVELQLQAAPGSLCALRAVDESVLLLRPDRELSNRSVYGMFPFWYGHYPYQVAEYDQCPVSGPWDFPQPLIDPMPQGHSSQRSIIWRPSFSEGTDLFSFFRDVGLKILSNAKIKKPVDCSHRSPEYSTAMGAGGGHPEAFESSTPLHQAEDSQVRQYFPETWLWDLFPIGNSGKEAVHVTVPDAITEWKAMSFCTSQSRGFGLSPTVGLTAFKPFFVDLTLPYSVVRGESFRLTATIFNYLKDCIRVQTDLAKSHEYQLESWADSQTSSCLCADDAKTHHWNITAVKLGHINFTISTKILDSNEPCGGQKGFVPQKGRSDTLIKPVLVKPEGVLVEKTHSSLLCPKGKVASESVSLELPVDIVPDSTKAYVTVLGDIMGTALQNLDGLVQMPSGCGEQNMVLFAPIIYVLQYLEKAGLLTEEIRSRAVGFLEIGYQKELMYKHSNGSYSAFGERDGNGNTWLTAFVTKCFGQAQKFIFIDPKNIQDALKWMAGNQLPSGCYANVGNLLHTAMKGGVDDEVSLTAYVTAALLEMGKDVDDPMVSQGLRCLKNSATSTTNLYTQALLAYIFSLAGEMDIRNILLKQLDQQAIISGESIYWSQKPTPSSNASPWSEPAAVDVELTAYALLAQLTKPSLTQKEIAKATSIVAWLAKQHNAYGGFSSTQDTVVALQALAKYATTAYMPSEEINLVVKSTENFQRTFNIQSVNRLVFQQDTLPNVPGMYTLEASGQGCVYVQTVLRYNILPPTNMKTFSLSVEIGKARCEQPTSPRSLTLTIHTSYVGSRSSSNMAIVEVKMLSGFSPMEGTNQLLLQQPLVKKVEFGTDTLNIYLDELIKNTQTYTFTISQSVLVTNLKPATIKVYDYYLPDEQATIQYSDPCE
modifications: internal thioester Cys970-Gln973; N-glycans (Asn120, Asn328, Asn857 named)
For B1, the results for the “inhibition of β-casein-cleaving activity at a 4:1 A2ML1:protease molar ratio” value in assay [1] and in assay [2] were approximately 65 % inhibited and approximately 10 % inhibited, respectively. Moreover, the “inhibition of thermolysin's β-casein-cleaving activity, A2ML1:thermolysin molar ratios up to 4:1, without BAPN” value in assay [3] is approximately 95 % inhibited.

The values are drawn from PMC9156758, “Cryo-EM structures of human A2ML1 elucidate the protease-inhibitory mechanism of the A2M family” (Nature Communications, 2022).
